# Source: patent US9228015B2, “Nogo receptor antagonists and methods of increasing neurite outgrowth” (Biogen Idec MA Inc., priority 2006, dated 2016)
# B1: 7E11: murine monoclonal anti-Nogo receptor-1 antibody, immunogen rat Nogo receptor-1 residues 110-125, IgG1 kappa, ATCC PTA-4587 (antibody, V domains shown)
# VH: VQLQESGAELVMPGASVKMSCKASGYTFTDYWMHWVKQRPGQGLEWIGAIDPSDSYSSYNQNFKGKATLTVDGSSSTAYMQLSSLTSEDSAVYYCARRITEAGAWFAYWGQGTTVT
# VL: MKLPVRLLVLMFWIPASSSDVVMTQTPLSLPVSLGDQASISCRSSQSLVHSNGNTYLHWYLQKPGQSPKLLIYKVSNRFSGVPDRFSGSGSGTDFTLKISRVDAEDLGVYFCSQSTHVPFTFGGGTKLEIKRADAAPTVSISHH
# modifications: 7E11 heavy chain; 7E11 light chain
# notes: murine monoclonal anti-Nogo receptor-1 antibody, immunogen rat Nogo receptor-1 residues 110-125, IgG1 kappa, ATCC PTA-4587
# How the values were obtained:
# mouse NgR3 = molecular target: T1, mouse NgR3 (Mus musculus, UniProt Q8K0S5); test: Antibody binding specificity: mouse Nogo receptor-3
# T1 sequence (Q8K0S5 25-424): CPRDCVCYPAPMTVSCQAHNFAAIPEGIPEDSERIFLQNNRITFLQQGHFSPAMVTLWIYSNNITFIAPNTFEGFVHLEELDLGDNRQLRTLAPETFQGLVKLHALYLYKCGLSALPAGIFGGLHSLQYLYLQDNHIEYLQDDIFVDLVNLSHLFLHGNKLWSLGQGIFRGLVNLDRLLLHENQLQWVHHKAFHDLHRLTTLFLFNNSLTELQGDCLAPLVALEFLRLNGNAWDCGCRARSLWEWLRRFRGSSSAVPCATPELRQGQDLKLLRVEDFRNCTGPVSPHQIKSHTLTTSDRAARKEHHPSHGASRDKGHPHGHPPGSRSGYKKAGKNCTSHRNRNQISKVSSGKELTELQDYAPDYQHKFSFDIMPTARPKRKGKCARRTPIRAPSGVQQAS
# human NgR2 = molecular target: T2, human NgR2 (Homo sapiens, UniProt Q86UN3); test: Antibody binding specificity: human Nogo receptor-2
# T2 sequence (Q86UN3 47-390): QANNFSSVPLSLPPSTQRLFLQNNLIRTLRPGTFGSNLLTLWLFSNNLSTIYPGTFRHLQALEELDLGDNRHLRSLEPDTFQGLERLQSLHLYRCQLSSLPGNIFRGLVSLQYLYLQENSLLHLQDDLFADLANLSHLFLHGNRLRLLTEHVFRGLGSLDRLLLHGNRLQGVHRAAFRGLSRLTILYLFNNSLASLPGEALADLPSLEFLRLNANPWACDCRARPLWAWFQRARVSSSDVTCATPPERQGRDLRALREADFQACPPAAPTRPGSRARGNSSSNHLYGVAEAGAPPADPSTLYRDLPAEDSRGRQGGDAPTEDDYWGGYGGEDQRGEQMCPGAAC
# Nogo66 + sNogoR344-Fc = molecular target: T3, Nogo66 + sNogoR344-Fc (Rattus norvegicus, UniProt Q99M75, A303T/C287S/C43R/E284G/T53A); test: ELISA: inhibition of Nogo66 binding to sNogoR344-Fc
# T3 construct: amino acid residues 26-344 of rat Nogo receptor-1; made in house
# T3 sequence (Q99M75 26-344 C43R/T53A/E284G/C287S/A303T): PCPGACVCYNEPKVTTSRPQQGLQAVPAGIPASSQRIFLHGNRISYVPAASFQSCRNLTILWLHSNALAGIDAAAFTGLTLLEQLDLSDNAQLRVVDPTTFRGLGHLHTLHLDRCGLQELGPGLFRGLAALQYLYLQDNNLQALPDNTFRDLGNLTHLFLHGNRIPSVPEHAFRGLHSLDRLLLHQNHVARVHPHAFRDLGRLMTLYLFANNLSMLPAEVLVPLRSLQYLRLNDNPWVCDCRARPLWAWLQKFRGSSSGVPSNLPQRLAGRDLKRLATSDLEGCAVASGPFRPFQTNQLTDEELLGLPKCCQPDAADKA
# Experimental: (§1) 0.5 μg of a soluble Nogo receptor-1 fusion protein comprising amino acid residues 26-344 of rat Nogo receptor-1 and the hinge and Fc region of the rat IgG1 molecule (sNogoR344-Fc) produced as described below was immobilized on […] of protein-A- or wheatgerm agglutinin-conjugated SPA beads (Amersham Pharmacia Biotech) for 2 hours at 25° C. SPA beads coupled with Fc-sNogoR-1, anti-Nogo receptor-1 mAb and 1 μl ^125I-Nogo66 (Amersham, 2000 Ci/mmol, 1 nM) in […] of the HEPES-buffered incubation medium (10 mM HEPES, pH 7.4, 0.1% bovine serum albumin, 0.1% ovalbumin, 2 mM MgCl2, 2 mM CaCl2 and protease inhibitors) was added to each sample well. After 16 hours, radioactivity was measured in quadruplicate samples using a TopCount® (Packard). IC50 values were calculated from a curve-fit analysis (FIG. 3) (PRISM, GraphPad Software, NJ). In some experiments, we also used AP-ligand conjugates (e.g. AP-Nogo66) and detected binding by monitoring alkaline phosphatase activity. We also assayed the ability of the mAbs to block binding of the ligands MAG-Fc and AP-OM-gp to Nogo receptor-1.
# (§2) Monoclonal antibodies 7E11, 5B10, 1H2, 3G5 and 2F7 all inhibited binding of Nogo66, MAG and OM-gp to sNogoR344-Fc. The calculated IC50 for Nogo66 for 7E11 and 1H2 were 400 nM and 60 nM, respectively. The data from ELISAs monitoring mAb-mediated inhibition of binding of the three ligands to Nogo receptor-1 are summarized in Table 6.
# (§3) The percent displacement is shown at 30 nM antibody and the EC50 for certain mAbs determined from curve-fit analysis as described. “-” indicates no detectable activity and “ND” indicates not determined.
# (§4) We also performed ELISA binding assays using the Fab-phage 141)5.
# NgR3 = molecular target: T4, NgR3 (Homo sapiens, UniProt Q86UN2); test: Antibody binding specificity: NgR3
# T4 sequence (Q86UN2 with tags, fused parts or gaps V54E/V59I/G67T/L68F/P71Q/Y90F/H92A/S94N/V144I/P190Q/T192I/R221H/S234T/E239D/G245V/P256A/Q271R/V283A/S284T/G286E/H289Q/A298V/A308V/T321S/S331P/P332S/P335A/T336S/S338D/P345H/R346P/H349S/INS350SGYK/P352A/N358S/P359H/A368V/G369S/A370S/Q373E/A374L/P375T/P378Q): T1 sequence (Q8K0S5 25-424)
# MAG + sNogoR344-Fc = molecular target: T5, MAG + sNogoR344-Fc (Rattus norvegicus, UniProt Q99M75, A303T/C287S/C43R/E284G/T53A); test: ELISA: inhibition of MAG binding to sNogoR344-Fc
# T5 construct: amino acid residues 26-344 of rat Nogo receptor-1; made in house; CHO (DG44) is described only for sNogoR310-Fc
# T5 sequence (Q99M75 26-344 C43R/T53A/E284G/C287S/A303T): T3 sequence (Q99M75 26-344 C43R/T53A/E284G/C287S/A303T)
# Experimental: as §1, §2, §3, §4
molecule,measurement,setting,value
B1,binding to mouse Nogo receptor-3,mouse NgR3,not
same,binding to human Nogo receptor-2,human NgR2,not
same,inhibition of binding of Nogo66 to sNogoR344-Fc,Nogo66 + sNogoR344-Fc,inhibited
same,EC50,Nogo66 + sNogoR344-Fc; curve-fit analysis,1.7 µM
same,binding to NgR3,NgR3,does not bind well
same,inhibition of binding of MAG to sNogoR344-Fc,MAG + sNogoR344-Fc,inhibited
same,MAG + sNogoR344-Fc: percent displacement,MAG + sNogoR344-Fc; 30 nM antibody,30 nM (60%)
same,EC50,MAG + sNogoR344-Fc; curve-fit analysis,0.5 µM
